Assay [1] addresses recombinant Lhcb1 protein (LHCII apoprotein reconstituted in vitro with chlorophylls and xanthophylls). Kind of assay: sucrose density gradient ultracentrifugation; in vitro trimerization of Lhcb1 reconstituted with a mix of all xanthophylls (L,V,N) plus Chl a and b; bound to Ni2+ column, washed with 0.1 mg/ml PG, 0.06% β-DM, 0.2 M NaCl, 20 mM phosphate pH 7.5, 10 mM imidazole; eluted, trimers separated from monomers on a sucrose gradient.

For assay [2] the target is unchanged. Kind of assay: sucrose density gradient ultracentrifugation; in vitro trimerization of Lhcb1 reconstituted with lutein as only xanthophyll (100% lutein) plus Chl a and b; bound to Ni2+ column, washed with 0.1 mg/ml PG, 0.06% β-DM, 0.2 M NaCl, 20 mM phosphate pH 7.5, 10 mM imidazole; eluted, trimers separated from monomers on a sucrose gradient.

What is called stoichiometry N is the number of molecules, sites or subunits per partner or assembly.

With “recombinant Lhcb1 protein (LHCII apoprotein reconstituted in vitro with chlorophylls and xanthophylls) (natural protein)”, the stoichiometry N in assay [1] and in assay [2] was 3 in each case.
